Experiments:
[1] = target: T1, human bek (bacterially expressed kinase) fibroblast growth factor receptor (human, UniProt P21802 22-821); assay: Scatchard analysis of [125I]kFGF saturation binding to bek13 cells
T1 construct: whole, on cells; Three-Ig-domain form, 135 kDa glycoprotein on transfected NIH 3T3 cells; Clone Nbek8 was used with aFGF and bFGF, clone NBek13 with kFGF; also called bek8; NBek8

[2] = target: T2, human flg (fms-like gene) fibroblast growth factor receptor (human, UniProt P11362 22-822); assay: Scatchard analysis of saturation binding to flg overexpressing cells, kFGF against bFGF
T2 construct: whole, on cells; Three-Ig-domain form, 150 kDa glycoprotein on transfected NIH 3T3 cells; also called flg26; NFlg26
T2 sequence (P11362 22-822): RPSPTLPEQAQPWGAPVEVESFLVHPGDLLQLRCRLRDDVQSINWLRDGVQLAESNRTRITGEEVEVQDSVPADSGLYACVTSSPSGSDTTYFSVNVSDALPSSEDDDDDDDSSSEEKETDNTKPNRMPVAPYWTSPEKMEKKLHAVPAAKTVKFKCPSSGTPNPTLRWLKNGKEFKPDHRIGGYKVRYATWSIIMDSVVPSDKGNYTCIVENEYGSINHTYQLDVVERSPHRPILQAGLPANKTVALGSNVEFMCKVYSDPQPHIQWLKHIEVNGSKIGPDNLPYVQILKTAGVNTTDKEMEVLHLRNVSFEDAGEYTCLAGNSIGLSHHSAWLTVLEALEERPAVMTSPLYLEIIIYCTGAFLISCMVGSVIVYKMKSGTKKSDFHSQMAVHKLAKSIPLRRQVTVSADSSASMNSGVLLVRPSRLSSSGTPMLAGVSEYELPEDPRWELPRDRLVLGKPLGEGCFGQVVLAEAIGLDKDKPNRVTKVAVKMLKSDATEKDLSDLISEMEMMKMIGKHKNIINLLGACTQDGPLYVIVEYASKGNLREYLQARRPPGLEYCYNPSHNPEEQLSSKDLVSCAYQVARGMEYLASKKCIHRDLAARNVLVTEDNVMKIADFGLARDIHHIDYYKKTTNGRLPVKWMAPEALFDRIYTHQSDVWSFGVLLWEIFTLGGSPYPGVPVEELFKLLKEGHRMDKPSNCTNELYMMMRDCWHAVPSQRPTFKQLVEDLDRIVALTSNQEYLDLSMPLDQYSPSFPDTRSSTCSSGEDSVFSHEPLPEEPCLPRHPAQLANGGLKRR
Protocol: (§1) Fibronectin-coated 24 well dishes containing 1×10^5 cells/well were placed on ice, and the wells were rinsed twice with cold binding buffer (DMEM, 1 mg/ml BSA, 5 U/ml heparin, 50 mM Hepes, pH 7.4). […] Nonspecific binding was obtained using the same serial dilutions but in the presence of 100 fold molar excess of non-radioactive aFGF. After incubation, the cells were placed on ice and rinsed twice with ice cold binding buffer minus heparin and then solubilized in 0.3N NaOH 37° C., 15 minutes.
(§2) Equilibrium Binding Analysis of flg and bek Radioloabled with Acidic, Basic and k-fibroblast Growth Factors Acidic and basic FGF were radioiodinated and purified on heparin-Sepharose as described above. The dissociation constants of bek and flg for aFGF and bFGF were established by saturation binding analysis of the overexpressing cell lines with the iodinated ligands. Binding of both aFGF and bFGF to bek and flg was specific and saturable (FIG. 6A, inserts).

[3] = target: T2, human flg (fms-like gene) fibroblast …; assay: Scatchard analysis of [125I]kFGF saturation binding to flg26 cells
[4] = target: T2, human flg (fms-like gene) fibroblast …; assay: Scatchard analysis of [125I]aFGF saturation binding to flg overexpressing NIH 3T3 cells
Protocol: The scale on the Scatchard analysis is the same in each panel.
as §1, §2

[5] = target: T2, human flg (fms-like gene) fibroblast …; assay: saturation binding of [125I]aFGF to flg26 cells with excess unlabelled aFGF or bFGF
Protocol: (§3) The background counts in the presence of a 100 fold molar excess of either ligand was always less than 10% of the total cpm at each point. The scale on the Scatchard analysis is the same in each panel.
as §1
as §2, with “inserts). […] Scatchard, (*Ann. N.Y. Acad.” for “inserts).”

[6] = target: T1, human bek (bacterially expressed …); assay: saturation binding of [125I]aFGF to bek8 cells with excess unlabelled aFGF or bFGF
Protocol: as §3, §1
as §2, with “inserts). […] Scatchard, (*Ann. N.Y. Acad.” for “inserts).”

[7] = target: T1, human bek (bacterially expressed …); assay: Scatchard analysis of [125I]aFGF saturation binding to bek overexpressing NIH 3T3 cells
Protocol: as §3, §1
as §2, with “inserts). […] Scatchard, (*Ann. N.Y. Acad.” for “inserts).”

[8] = target: T1, human bek (bacterially expressed …); assay: Scatchard analysis of saturation binding, additional experiments
Protocol: as §1, §2

T1 sequence (P21802 22-821): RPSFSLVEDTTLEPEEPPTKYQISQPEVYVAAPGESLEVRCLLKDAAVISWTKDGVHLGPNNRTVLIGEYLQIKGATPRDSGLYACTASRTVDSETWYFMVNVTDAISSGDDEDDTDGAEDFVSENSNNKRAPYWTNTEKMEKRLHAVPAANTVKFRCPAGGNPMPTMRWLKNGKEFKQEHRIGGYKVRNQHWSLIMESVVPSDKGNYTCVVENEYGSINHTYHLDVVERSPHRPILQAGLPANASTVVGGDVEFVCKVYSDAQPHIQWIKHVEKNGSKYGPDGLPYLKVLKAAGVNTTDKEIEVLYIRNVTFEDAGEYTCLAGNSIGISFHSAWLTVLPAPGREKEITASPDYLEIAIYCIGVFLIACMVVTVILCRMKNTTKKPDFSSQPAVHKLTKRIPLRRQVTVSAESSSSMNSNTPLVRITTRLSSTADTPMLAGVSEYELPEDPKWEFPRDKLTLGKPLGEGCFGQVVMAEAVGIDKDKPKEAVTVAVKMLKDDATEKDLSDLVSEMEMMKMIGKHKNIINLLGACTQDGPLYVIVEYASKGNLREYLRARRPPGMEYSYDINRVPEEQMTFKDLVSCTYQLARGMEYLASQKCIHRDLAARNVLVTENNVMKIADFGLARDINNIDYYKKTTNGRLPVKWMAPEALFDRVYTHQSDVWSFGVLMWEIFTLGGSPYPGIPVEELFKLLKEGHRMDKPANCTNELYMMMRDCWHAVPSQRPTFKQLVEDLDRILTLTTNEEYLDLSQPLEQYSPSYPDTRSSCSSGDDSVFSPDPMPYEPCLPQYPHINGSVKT

Row | Kd [1] [nM] | fold less avidity than bFGF [2] [fold] | Kd [3] [nM] | Kd [4] [nM] | background counts with 100 fold molar excess of either ligand, % of total cpm [5] [%] | background counts with 100 fold molar excess of either ligand, % of total cpm [6] [%] | Kd [7] [nM] | Kd [8] [nM] | Binder
1 | 0.08 | 4 | 0.32 |  |  |  |  |  | human recombinant kFGF (ligand, UniProt P08620 31-206, looked up, radioiodinated (125I) by Enzymobeads, also called hst/kFGF) APTAPNGTLEAELERRWESLVALSLARLPVAAQPKEAAVQSGAGDYLLGIKRLRRLYCNVGIGFHLQALPDGRIGGAHADTRDSLLELSPVERGVVSIFGVASRFFVAMSSKGKLYGSPFFTDECTFKEILLPNNYNAYESYKYPGMFIALSKNGKTKKGNRVSPTMKVTHFLPRL
2 |  |  |  | 0.024 | < 10 | < 10 | 0.047 | 0.04 to 0.1 | bovine derived acidic fibroblast growth factor (ligand, UniProt P03968 16-155, looked up, radioiodinated (125I) by Enzymobeads where used as labelled ligand, Purified from a bovine source; also called aFGF; acidic FGF) FNLPLGNYKKPKLLYCSNGGYFLRILPDGTVDGTKDRSDQHIQLQLCAESIGEVYIKSTETGQFLAMDTDGLLYGSQTPNEECLFLERLEENHYNTYISKKHAEKHWFVGLKKNGRSKLGPRTHFGQKAILFLPLPVSSD

Reference: patent US6344546 (RHONE POULENC RORER, dated 2002)
